Columns and labels:
[1] = target: IgE antibodies of serum E; assay: ImmunoCAP inhibition, inhibitor 100 µg/ml, cat dander extract solid phase
[2] = target: IgE antibodies of serum C; assay: as above
[3] = target: IgE antibodies of serum B; assay: as above
[4] = target: IgE antibodies of serum A; assay: as above
[5] = target: IgE antibodies of serum D; assay: as above
[6] = target: IgE antibodies of serum E; assay: ImmunoCAP inhibition, inhibitor 100 µg/mL, competitor rFel d 1 on solid phase
[7] = target: IgE antibodies of serum C; assay: as above
[8] = target: IgE antibodies of serum B; assay: as above
[9] = target: IgE antibodies of serum A; assay: as above
[10] = target: IgE antibodies of serum D; assay: as above
[11] = target: IgE antibodies of serum E; assay: ImmunoCAP inhibition, inhibitor 100 µg/mL, horse dander extract solid phase
[12] = target: IgE antibodies of serum C; assay: as above
[13] = target: IgE antibodies of serum B; assay: as above
[14] = target: IgE antibodies of serum A; assay: as above
[15] = target: IgE antibodies of serum D; assay: as above
[16] = target: IgE antibodies of serum E; assay: ImmunoCAP inhibition, inhibitor 100 µg/mL, competitor rEqu c s on solid phase
[17] = target: IgE antibodies of serum C; assay: as above
[18] = target: IgE antibodies of serum B; assay: as above
[19] = target: IgE antibodies of serum A; assay: as above
[20] = target: IgE antibodies of serum D; assay: as above
[21] = target: IgE antibodies of serum E; assay: ImmunoCAP inhibition, inhibitor 100 µg/ml, horse dander extract solid phase
[22] = target: IgE antibodies of serum C; assay: as above
[23] = target: IgE antibodies of serum B; assay: as above
[24] = target: IgE antibodies of serum A; assay: as above
[25] = target: IgE antibodies of serum D; assay: as above

Binder | Inhibition (%) [6] | Inhibition (%) [7] | Inhibition (%) [8] | Inhibition (%) [9] | Inhibition (%) [10] | Inhibition (%) [11] | Inhibition (%) [12] | Inhibition (%) [13] | Inhibition (%) [14] | Inhibition (%) [15] | Inhibition (%) [16] | Inhibition (%) [17] | Inhibition (%) [18] | Inhibition (%) [19] | Inhibition (%) [20] | further results
recombinant Equ c 15k (protein, from a related filing, horse) chain 1: ATCPAVATDIASFFLLPDSLFKLQLIKYQAPPEAKDATMQVKQCINEISAGDRYIITETLGKIVLQCGA chain 2: GSGCQLLEDVVEKTITAELSPAEYVEAVQEFIPDEATEKAAIQLKQCYLKQSNETLNDFRTMMNSMYNSAYCALF | -3% | -6% | -4% | -5% | -2% | -10% | 0% | -2% | -10% | -6% | 4% | 7% | 5% | 12% | 8% | Inhibition (%) [1]: 4%; Inhibition (%) [2]: -2%; Inhibition (%) [3]: 6%; Inhibition (%) [4]: -2%; Inhibition (%) [5]: 0%; Inhibition (%) [21]: 2%; Inhibition (%) [22]: 5%; Inhibition (%) [23]: -2%; Inhibition (%) [24]: -5%; Inhibition (%) [25]: 4%
recombinant single chain Equ c s ab (protein) MDICPAVKEDVNIFLTGTPDDYVKKVSQYQRNPVILANAEKLKNCIDKKLTAEDKENALSVLEKIYSSDFCGGGGSGGGGSGGGGSCPSFYAVLGVLSLGSKTLLDTSLNLVNATEPEKVAMGKIQDCYNEAGVITKISDLIIMGTITTSPECISHALSTLTTDVQEGISKLNPLGRLEHHHHHH | 7% | -2% | -3% | -7% | 5% | 98% | 96% | 93% | 96% | 96% | 76% | 62% | 62% | 60% | 59% | –
